Measured values: PMC9649601, “The E262K mutation in Lamin A links nuclear proteostasis imbalance to laminopathy‐associated premature aging” (Aging Cell, 2022)
Residue numbers refer to the chain shown, from its start. Numbers in names are those of the source.

B1: second rod domain of lamin A E262K (LMNA^E262K-rod2, residues 226-387) (domain or fragment, human, UniProt P02545 226-387, looked up)
chain: LVEIDNGKQREFESRLADALQELRAQHEDQVEQYKKKLEKTYSAKLDNARQSAERNSNLVGAAHEELQQSRIRIDSLSAQLSQLQKQLAAKEAKLRDLEDSLARERDTSRRLLAEKEREMAEMRARMQQQLDEYQELLDIKLALDMEIHAYRKLLEGEEERL
notes: lamin A (LMNA), human, second rod domain, residues 226-387, with the patient's variant p.Glu262Lys; source: bacterially expressed recombinant, purified
B2: second rod domain of lamin A (LMNA-rod2, residues 226-387) (domain or fragment, human, UniProt P02545 226-387, looked up)
chain: B1 chain with K37E
notes: lamin A (LMNA), human, second rod domain, residues 226-387; source: bacterially expressed recombinant, purified

Target: the molecule itself
Experiment: dynamic light scattering + other: atomic force microscopy; purified proteins at 0.1 and 10 uM in aqueous environment; ex situ AFM at 10 uM; self-association (oligomers or aggregates)

| Protein | binding result |
| --- | --- |
| B1 | binds |
| B2 | binds |
